Laboratory results from patent publication US8969060B2, “Modified glucose dehydrogenase” (Ikeda Food Research Co., Ltd., priority 2011, dated 2015).
Changes are numbered by the printed parent chain. Numbers in names are those of the source. Where “and” joins values, the source holds several entries; their conditions need not be identical. Identical values can stand only once.

B1: G352S: modified GLD: SEQ ID NO: 1 with substitution G352S (protein, listed as Aspergillus terreus)
chain: MLGKLSFLSALSLAVAAPLSNSTSAKYDYIVIGGGTSGLAVANRLSEDPNVNVLILEAGGSVWNNPNVTNVDGYGLAFGSDIDWQYQSVNQPYGGNLSQVLRAGKALGGTSTINGMAYTRAEDVQIDAWETIGNTGWTWKNLFPYYRKSENFTVPTKSQTSLGASYEAGAHGHEGPLDVAFTQIESNNLTTYLNRTFQGMGLPWTEDVNGGKMRGFNLYPSTVNLEEYVREDAARAYYWPYKSRPNLHVLLNTFANRIVWDGEAHDGHITASGVEITSRNGTVRVINAEKEVIVSAGALKSPAILELSGIGNPSVLDKHNIPVKVNLPTVGENLQDQVNSHMDASGNTSISSTKAVSYPDVYDVFGDEAESVAKQIRANLKQYAADTAKANGNIMKAADLERLFEVQYDLIFKGRVPIAEVLNYPGSATSVFAEFWALLPFARGSVHIGSSNPAEFPVINPNYFMLDWDAKSYVAVAKYIRRSFESYPLSSIVKESTPGYDVIPRNASEQSWKEWVFDKNYRSNFHPVGTAAMMPREIGGVVDERLNVYGTTNVRVVDASVLPFQVCGHLVSTLYAVAERAADLIKADAGRR
modifications: SIGNAL (1)..(19)
B2: Y424C: modified GLD: SEQ ID NO: 1 with substitution Y424C (protein, listed as Aspergillus terreus)
chain: B1 chain with S352G, Y424C
modifications: SIGNAL (1)..(19)
B3: G352W: modified GLD: SEQ ID NO: 1 with substitution G352W (protein, listed as Aspergillus terreus)
chain: B1 chain with S352W
modifications: SIGNAL (1)..(19)
B4: Y424Q: modified GLD: SEQ ID NO: 1 with substitution Y424Q (protein, listed as Aspergillus terreus)
chain: B1 chain with S352G, Y424Q
modifications: SIGNAL (1)..(19)
B5: K354R: modified GLD: SEQ ID NO: 1 with substitution K354R (protein, listed as Aspergillus terreus)
chain: B1 chain with S352G, K354R
modifications: SIGNAL (1)..(19)
B6: Y424R: modified GLD: SEQ ID NO: 1 with substitution Y424R (protein, listed as Aspergillus terreus)
chain: B1 chain with S352G, Y424R
modifications: SIGNAL (1)..(19)
B7: K354A: modified GLD: SEQ ID NO: 1 with substitution K354A (protein, listed as Aspergillus terreus)
chain: B1 chain with S352G, K354A
modifications: SIGNAL (1)..(19)
B8: Y424N: modified GLD: SEQ ID NO: 1 with substitution Y424N (protein, listed as Aspergillus terreus)
chain: B1 chain with S352G, Y424N
modifications: SIGNAL (1)..(19)
B9: G352V: modified GLD: SEQ ID NO: 1 with substitution G352V (protein, listed as Aspergillus terreus)
chain: B1 chain with S352V
modifications: SIGNAL (1)..(19)
B10: K354M: modified GLD: SEQ ID NO: 1 with substitution K354M (protein, listed as Aspergillus terreus)
chain: B1 chain with S352G, K354M
modifications: SIGNAL (1)..(19)
B11: Y424K: modified GLD: SEQ ID NO: 1 with substitution Y424K (protein, listed as Aspergillus terreus)
chain: B1 chain with S352G, Y424K
modifications: SIGNAL (1)..(19)
B12: K354E: modified GLD: SEQ ID NO: 1 with substitution K354E (protein, listed as Aspergillus terreus)
chain: B1 chain with S352G, K354E
modifications: SIGNAL (1)..(19)
B13: K354S: modified GLD: SEQ ID NO: 1 with substitution K354S (protein, listed as Aspergillus terreus)
chain: B1 chain with S352G, K354S
modifications: SIGNAL (1)..(19)
B14: K354N: modified GLD: SEQ ID NO: 1 with substitution K354N (protein, listed as Aspergillus terreus)
chain: B1 chain with S352G, K354N
modifications: SIGNAL (1)..(19)
B15: G352Y: modified GLD: SEQ ID NO: 1 with substitution G352Y (protein, listed as Aspergillus terreus)
chain: B1 chain with S352Y
modifications: SIGNAL (1)..(19)
B16: K354F: modified GLD: SEQ ID NO: 1 with substitution K354F (protein, listed as Aspergillus terreus)
chain: B1 chain with S352G, K354F
modifications: SIGNAL (1)..(19)
B17: K354D: modified GLD: SEQ ID NO: 1 with substitution K354D (protein, listed as Aspergillus terreus)
chain: B1 chain with S352G, K354D
modifications: SIGNAL (1)..(19)
B18: K354Y: modified GLD: SEQ ID NO: 1 with substitution K354Y (protein, listed as Aspergillus terreus)
chain: B1 chain with S352G, K354Y
modifications: SIGNAL (1)..(19)
B19: K354P: modified GLD: SEQ ID NO: 1 with substitution K354P (protein, listed as Aspergillus terreus)
chain: B1 chain with S352G, K354P
modifications: SIGNAL (1)..(19)
B20: K354H: modified GLD: SEQ ID NO: 1 with substitution K354H (protein, listed as Aspergillus terreus)
chain: B1 chain with S352G, K354H
modifications: SIGNAL (1)..(19)
B21: Y424D: modified GLD: SEQ ID NO: 1 with substitution Y424D (protein, listed as Aspergillus terreus)
chain: B1 chain with S352G, Y424D
modifications: SIGNAL (1)..(19)
B22: Y424E: modified GLD: SEQ ID NO: 1 with substitution Y424E (protein, listed as Aspergillus terreus)
chain: B1 chain with S352G, Y424E
modifications: SIGNAL (1)..(19)
B23: G352T: modified GLD: SEQ ID NO: 1 with substitution G352T (protein, listed as Aspergillus terreus)
chain: B1 chain with S352T
modifications: SIGNAL (1)..(19)
B24: K354Q: modified GLD: SEQ ID NO: 1 with substitution K354Q (protein, listed as Aspergillus terreus)
chain: B1 chain with S352G, K354Q
modifications: SIGNAL (1)..(19)
B25: K354C: modified GLD: SEQ ID NO: 1 with substitution K354C (protein, listed as Aspergillus terreus)
chain: B1 chain with S352G, K354C
modifications: SIGNAL (1)..(19)
B26: K354G: modified GLD: SEQ ID NO: 1 with substitution K354G (protein, listed as Aspergillus terreus)
chain: B1 chain with S352G, K354G
modifications: SIGNAL (1)..(19)

Assays:
[1] = Relative enzymatic activity of GLD (DCIP/1-m-PMS, plate reader, yeast culture supernatant) with proflavin hydrochloride present; type: biochemical; details: site-specific mutants, inhibitor final concentration 1 mM
How it was run: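 Culture supernatant diluted and mixed with reagent of phosphate buffer pH 7.0, 1.0 M D-glucose, 3 mM DCIP, 3 mM 1-m-PMS and methanol (0.1:1:0.14:0.2:0.06). DCIP absorbance decrease at 600 nm followed; proflavin hydrochloride in methanol replaced methanol at 1 mM final. Activity expressed as % of inhibitor-free blank.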

[2] = Relative enzymatic activity of GLD (DCIP/1-m-PMS, plate reader, yeast culture supernatant) with 1,10-phenanthroline present; type: biochemical; details: site-specific mutants, inhibitor final concentration 1 mM
How it was run: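 Yeast transformants grown in YPD, 30° C., 24 h; diluted culture supernatant assayed in phosphate buffer pH 7.0 with D-glucose, DCIP and 1-m-PMS, DCIP absorbance change at 600 nm. Relative activity (%) = activity with 1 mM 1,10-phenanthroline (final, replacing methanol) divided by activity without it.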

Molecule | Relative Activity [%] Proflavin hydrochloride [1] | Relative Activity [%] 1,10-Phenanthroline [2]
B1 | 38.7% | 62.9%
B2 | 45.9% | 73.7%
B3 | 48.1% | 81.2%
B4 | 50.2% | 80.2%
B5 | 12.6% | 64.4%
B6 | 55.6% | 70.3%
B7 | 8.9% | 66.2%
B8 | 55.6% | 89.9%
B9 | 41.6% | 87.0%
B10 | 10.7% | 53.5%
B11 | 52.5% | 71.9%
B12 | 20.7% | 60.0%
B13 | 21.3% | 71.6%
B14 | 15.1% | 61.9%
B15 | 52.8% | 92.4%
B16 | 16.0% | 47.8%
B17 | 11.6% | 70.8%
B18 | 15.1% | 56.0%
B19 | 16.7% | 64.3%
B20 | 11.1% and 11.6% | 52.6% and 51.0%
B21 | 37.2% | 87.1%
B22 | 37.1% | 87.5%
B23 | 44.1% | 85.4%
B24 | 12.5% | 71.4%
B25 | 14.4% | 62.6%
B26 | 23.0% | 60.8%
